{"source": "patent US10246503B2", "about": "“Method of improving the pharmacokinetic profile of a therapeutic polypeptide and the use thereof” (BEIJING ANXINHUAIDE BIOTECH. CO., LTD, priority 2012, dated 2019)", "molecules": {"B1": {"name": "GLP1(A8G/G22E/R36G)-Fn8-p246-COL18NC1: GLP-1 mutant, Fn8, pCloud p246, COL18NC1 fusion; SEQ ID NO: 16 (protein)", "chain": "HGEGTFTSDVSSYLEEQAAKEFIAWLVKGGGSGGGSGGGSGGGSGGGSGSGGAVPPPTDLRFTNIGPDTMRVTWAPPPSIDLTNFLVRYSPVKNEEDVAELSISPSDNAVVLTNLLPGTEYVVSVSSVYEQHESTPLRGRQKTGGGGSGGGSGSGSESGSGGGSTSSGTGSETESPGSGSESGSGPSSAGSGSGSESGSGSGSSGPGSTGGSGSESGSGPGSSGTGGTATGSGSESGSGPGSSGPGSTGSGSGSESGSGSGSSGTGSTGGSGSESGSGPGSPRPGSTGTGSGSESGSGPGSSERGSAGGSGSESGSGTSESSASGSTGGSGSESGSGSESGSGSGSESGSGPESPGSGGSGSESGSGTSGSTGSGSESGSGGGSGGGSGGGASSGVRLWATRQAMLGQVHEVPEGWLIFVAEQEELYVRVQNGFRKVQLEARTPLPRG"}}, "key": {"[1]": {"assay": "pharmacokinetics in SD rats, sandwich ELISA (Example 15)", "assay_type": "in vivo, SD (Sprague-Dawley) rats", "details": "intraperitoneal, 5 nmol/kg", "description": "To evaluate the pharmacokinetics profiles for the GLP-1 containing fusion proteins generated using the method of the invention, we purified the recombinant fusion proteins of GLP-1-Fn8-COL18NC1, GLP1(A8G/G22E/R36G)-Fn8-p246-COL18NC1 and GLP1(A8G/G22E/R36G)-Fn8-p285-COL18NC1 in PBS buffer, pH 7.2. These fusion proteins were administered into SD (Sprague-Dawley) rats by intraperitoneal injections at the dose of 5 nmol/kg for animals, respectively. Blood samples were taken at various time points after injections such as 0-min, 30-min, 1-hour, 2-hour, 4-hour, 6-hour, 8-hour, 24-hour, 48-hour, 3-day, 4-day, 5-day, 6-day and 7-day. The serum samples were centrifuged and kept at −80° C. freezer.\n(§1) The GLP-1 concentrations within the samples were examined by use of the sandwich ELISA method. The rabbit polyclonal antibody against human Fibronectin at the concentration of 3 ug/ml (Ab299, Abcam company) was coated on ELISA plate for 1 hour at room temperature. Then the plate was washed by PBST buffer three times and the wells were blocked by PBS with 10% FBS for 1 hour at room temperature. The plate was washed three times before the serum samples containing GLP-1 fusion proteins were added. The serum samples could be diluted to 20-10000 folds before use. The ELISA plate was incubated with the serum samples at room temperature for 1 hour and then washed by PBST buffer five times. Then mouse monoclonal against human GLP-1 peptide antibody (sc57510, Santa Cruz Biotechnology) at the concentration of 1 ug/ml in PBST buffer was added to the wells. The plate was washed extensively after incubation of 1 hour at room temperature. The secondary antibody, […] HRP conjugated antibody (Beijing ZSGB-Bio company, ZB 5301), was added into the wells and the color was developed using TMB (3,3′,5,5′-tetramethylbenzidine, BD Biosciences, Cat 555214). The plate reader (Bio-Rad microplate reader Model 680) was utilized to obtain the OD450 readings. This method has been calibrated using purified proteins first.\nThe pharmacokinetics parameters were obtained by using the WinNonlin software (Table 5)."}, "cynomolgus monkeys": {"tested_on": "cynomolgus monkeys", "assay": "specific antibody against the fusion protein in monkey serum, ELISA", "assay_type": "in vivo", "details": "serum of three cynomolgus monkeys one month after dosing", "from_the_text": "The serum samples of the cynomolgus monkeys receiving the fusion protein GLP1(A8G/G22E/R36G)-Fn8-p246-COL18NC1 were withdrawn one month after dosing to examine whether specific antibody against GLP1(A8G/G22E/R36G)-Fn8-p246-COL18NC1 has been generated."}, "[2]": {"assay": "pharmacokinetics in cynomolgus monkeys, sandwich ELISA", "assay_type": "in vivo", "details": "subcutaneous, 5 nmol/kg", "description": "as §1\nTo further investigate the pharmacokinetics profiles for the GLP-1 containing fusion proteins generated using the method of the invention, the fusion protein GLP1(A8G/G22E/R36G)-Fn8-p246-COL18NC1 was administrated into the cynomolgus monkeys by subcutaneous injection. The fusion protein was administered on three cynomolgus monkeys at the dose of 5 nmol/kg. Blood samples were taken at various time points after injections such as 0-min, 2-hour, 4-hour, 6-hour, 8-hour, 24-hour, 48-hour, and daily until the 15th day. The serum samples were centrifuged and kept at −80° C. freezer. The concentrations of the fusion protein within the serum samples were examined by using the sandwich ELISA method described above. The pharmacokinetics profile of the fusion protein GLP1(A8G/G22E/R36G)-Fn8-p246-COL18NC1 in cynomolgus monkeys was shown in FIG. 8. The pharmacokinetics parameters were obtained by using the WinNonlin software (Table 5)."}, "[3]": {"assay": "analytical gel filtration (Superdex200), apparent molecular weight", "assay_type": "physicochemical", "from_the_text": "In the fusion protein of GLP-1(A8G/G22E)-Fn8-COL18NC1 described in example 4, the flexible unstructured linker between Fn8 and COL18NC1 contains six residues (GGGSGG; SEQ ID NO:89). To generate the flexible un-structured linkers with different lengths, we have synthesized the genes GLP-1(A8G/G22E/R36S)-Fn8-COL18NC1-20, GLP-1(A8G/G22E/R36S)-Fn8-COL18NC1-30, GLP-1(A8G/G22E/R36S)-Fn8-COL18NC1-54 and GLP-1(A8G/G22E/R36S)-Fn8-COL18NC1-60. In these genes, the length of the flexible unstructured polypeptide linker between Fn8 and COL18NC1 contained 20, 30, 54 and 60 residues, respectively. The protein sequences of GLP-1(A8G/G22E/R36S)-Fn8-COL18NC1-20, GLP-1(A8G/G22E/R36S)-Fn8-COL18NC1-30, GLP-1(A8G/G22E/R36S)-Fn8-COL18NC1-54 and GLP-1(A8G/G22E/R36S)-Fn8-COL18NC1-60 are listed as SEQ ID NO:8-11. The synthetic genes of GLP-1(A8G/G22E/R36S)-Fn8-COL18NC1-20, GLP-1(A8G/G22E/R36S)-Fn8-COL18NC1-30, GLP-1(A8G/G22E/R36S)-Fn8-COL18NC1-54 and GLP-1(A8G/G22E/R36S)-Fn8-COL18NC1-60 were grafted to the pET29b by NdeI and XhoI for protein expressions. The expression and purification of these fusion proteins were carried out using similar protocols described in example 3. To estimate the hydrodynamic radius and/or the Rg of the fusion proteins, the purified proteins were loaded on an analytical gel filtration column Superdex200 (GE Healthcare).\nMoreover, the flexible unstructured linker between the therapeutic polypeptide and the scaffold protein may adjust the hydrodynamic radius and/or the Rg of the fusion molecule in a tunable manner.\nThe apparent molecular weights of the fusion proteins were estimated by use of an analytical gel filtration column Superdex-200 (GE Healthcare) mounted on the AKTA FPLC system (GE Healthcare). The purified fusion proteins GLP-1-Fn8, GLP-1-Fn8-COL18NC1, GLP-1(A8G/G22E/R36G)-Fn8-p246-COL18NC1 were loaded on the Superdex200 column. GLP-1-Fn8 is a fusion protein of GLP-1 and Fn8 and contains the first 144 amino acid residues of the fusion protein GLP-1-Fn8-COL18NC1 (SEQ ID NO:2). […] The genuine molecular weights for the fusion proteins GLP-1-Fn8 monomer, GLP-1-Fn8-COL18NC1 trimer, and GLP-1(A8G/G22E/R36G)-Fn8-p246-COL18NC1 trimer were ˜15 Kd, 65 Kd and 123Kd, respectively."}, "SD rats": {"tested_on": "SD rats", "assay": "toxicity in SD rats", "assay_type": "in vivo", "from_the_text": "The toxicity of GLP1(A8G/G22E/R36G)-Fn8-p246-COL18NC1 in SD rats was also examined."}}, "data": [{"molecule": "B1", "values": [{"measurement": "AUCall", "setting": "[1]; Rats", "value": 301.2, "unit": "µg·h/mL"}, {"measurement": "CL/F", "setting": "[1]; Rats", "value": 2.03, "unit": "mL/h/kg"}, {"measurement": "Cmax", "setting": "[1]; Rats", "value": 5730, "unit": "ng/mL"}, {"measurement": "T½", "setting": "[1]; Rats", "value": 30.8, "unit": "h"}, {"measurement": "Vss", "setting": "[1]; Rats", "value": 0.09023, "unit": "L/kg"}, {"measurement": "half life", "setting": "[1]; SD rats", "value": 30.8, "unit": "h"}, {"measurement": "specific antibody against the fusion protein", "setting": "cynomolgus monkeys", "value": "no specific antibody was induced"}, {"measurement": "AUCall", "setting": "[2]; Monkey", "value": 1267.8, "unit": "µg·h/mL"}, {"measurement": "CL/F", "setting": "[2]; Monkey", "value": 0.48, "unit": "mL/h/kg"}, {"measurement": "Cmax", "setting": "[2]; Monkey", "value": 8210, "unit": "ng/mL"}, {"measurement": "T½", "setting": "[2]; Monkey", "value": 67.3, "unit": "h"}, {"measurement": "Vss", "setting": "[2]; Monkey", "value": 0.0516, "unit": "L/kg"}, {"measurement": "half life", "setting": "[2]; cynomolgus monkeys", "value": "~67", "unit": "h"}, {"measurement": "apparent molecular weight", "setting": "[3]", "value": "~550", "unit": "Kd"}, {"measurement": "unacceptable adverse effects such as significant weight loss and fever", "setting": "SD rats; repeated doses of 5 nmol/kg every three days for four weeks", "value": "did not induce unacceptable adverse effects"}, {"measurement": "unacceptable adverse effects such as significant weight loss and fever", "setting": "SD rats; single dose of 30 nmol/kg", "value": "did not induce unacceptable adverse effects"}]}]}
